Tested on: MS2 coat protein
Assay: apparent KD of MS2 coat protein; higher = weaker reporter binding
Conditions: Eterna round: R107
How it was run: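 The buffer was 100 mM Tris-HCl pH 7.5 with 80 mM KCl and 4 mM MgCl2, used without or with constant ligand. In it, RNA switches transcribed on-chip from Illumina sequencing clusters were titrated with SNAP-549-labelled MS2 coat protein in twofold steps from 0.7 or 1.5 nM to 3 µM. Apparent KD for each design is the median of its normalised cluster binding-curve fits.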

[1] = input ligand: theophylline 20 uM
[2] = input ligand: theophylline 2 mM
[3] = input ligand: tryptophan 2.4 mM

Row | Sequence | apparent KD of MS2 coat protein (input ligand: arginine 13.2 mM) [µM] | apparent KD of MS2 coat protein [1] [µM] | apparent KD of MS2 coat protein [2] [µM] | apparent KD of MS2 coat protein (input ligand: none) [µM] | apparent KD of MS2 coat protein [3] [µM]
1 | AUGCAGAACACGGCCGCCACUCAUUGUAGACAUGAGGAUCACCCAUGUAAUAGGGAUAUUUUAUUGAGGACCGGGUGUAAUGCAA [JR_SSTryptoB_Sub013] | 0.0345 | 0.0776 | 0.0595 |  | 
2 | AUGCAUAGCGGAAGGAGCGCAAUAGAAUGACAUGAGGAUCACCCAUGUGUGUGAUGUGGAUUGCAGGUAGGUCGCCGAGUGGUAU [Exclusion - Arginine B (Freestyle 3)] | 0.0359 | 0.0575 | 0.0427 | 0.0451 | 0.0428
3 | AUGGAGACCUCGGCCGCCACUCUCCAUGAGGAUCUCCCAUGUAACAUGAGGAUCACCCAUGUACUGAGGACCGGGAGGUCCUUGA [Same State Tryptophan B GF 17] | 0.0079 | 0.0108 | 0.0101 |  | 
4 | AUUAAAGUUUAUAAGGAAAUUGAAACAGAAGGAGCGUGAGUAAUCACAGGUAGGUCGCUGGUAGUACAUGAGGAUCACCCAUGUU [JR_Nu_SSArginiA_Sub020] | 0.0222 | 0.0306 | 0.0242 | 0.0201 | 0.0213
5 | AUUCAUAAUUGGGUAAAUGGAUAGAGUGAUACCAGUCAUAUACAUGACCCUUGGCAGCACAAGGACAUGAGGAUCACCCAUGUCA [Same State Theophylline A GF22] | 0.0211 | 0.0267 |  |  | 0.0289
6 | AUUCAUGGAAACAUGACAUAGGGAUCUAGCCGAGGACCGGUACGGCCGCCACUCGCUUGGAGGCACAUGAGGAUCACCCAUGUUA [SS Tryp A #6] | 0.0423 | 0.14 | 0.14 |  | 
7 | CAAUAAGUAACUGAUACCAGUGUACUGACAUGAGGAUCACCCAUGUUGGGUUUUGUUGUACACCCUUGGCAGCAGAAUCUUAUUG [AstrosExyTheB#12] | 0.0442 | 0.0672 |  |  | 0.0554
8 | CAAUAUAUAUGAAGGAGCGUCGAAAAUGGGUAAACAUGAGGAUCACCCAUGUAAAGGGAACGACAGGUAGGUCGCAUAUAUAUUG [AstromonsSSArgB#8] | 0.117 | 0.305 | 0.218 | 0.168 | 0.192
9 | CACAGUGCGAAUUUGAAAUCGCACGAUCCUCGAGGACCGGUACGGCCGCCACUCGCGCGGGUCGUACAUGAGGAUCACCCAUGUC [Beertele] | 0.044 | 0.6 | 0.907 |  | 
10 | CACGCGGUGUCGGCCGCCACUGACGCCCGUGGGUCUCCUGACAUGAGGAUCACCCAUGUACAGCGCAGGACCGGGACACCAACAA [Are] | 0.022 | 0.059 | 0.0642 | 0.0494 | 0.0293
11 | CAGAGCUACCGGGAUACCAGAAUUGGUAUUCCUAUAUUUCUUACAUGAGGAUCACCCAUGUUCCCUUGGCAGCUUGGUAGCUCUG [ETHB #9] | 0.0451 | 0.0876 |  |  | 0.0688
12 | CAUAAUUUAUCCUAUAAAACUAUUAGUGAUACCAGCACCUCAUGAUGCCCUUGGCAGCACUUACAUGAGGAUCACCCAUGUUUUA [JR_NU_SSTheophyA_Sub029] | 0.0996 | 0.223 |  |  | 0.158
13 | CAUAUAUAUUGAAGGAGCGACAUGAGGAUCACCCAUGUCUACCACGUCGAAAGACGCUCAUGUCAGGUAGGUCGCAAUAUAUAUG [Astros-Eli-mod5] | 0.0415 | 0.0862 | 0.144 | 0.124 | 0.106
14 | CCAUGCAGGUCGGCCGCCACUACACACAUGAGGAUCACCCAUGUAGUUACUGGGUGAAGUGGCAGUAGGACCGGGACCUGCAUAC [Brourdmod12] | 0.0782 | 0.459 | 0.54 | 0.341 | 0.395
15 | CCGACAUGAGGAUCACCCAUGUGAACAGAUACCAGUCUGGUAAUAGACCCUUGGCAGCUGAACCAGGAAACUAUGGUGAUCCUGG [Theo A SS t3] | 0.066 | 0.0895 | 0.187 | 0.0698 | 0.0836
16 | CCGUCACAUGAGGAUCACCCAUGUGCGGAAGGAGCGGACGAAAGUCCAGGUAGGUCGCCGUAUAGCCAAUGACCAGCAGUGUCGG [XARG-A 21] | 0.0121 | 0.0154 | 0.0148 | 0.0126 | 0.0144
17 | CCUAUGCAGUCGGCCGCCACUGAACAUGAGGAUCACCCAUGUAACGGAAACGAAGAUCCUGAAAUCAGGACCGGGACUGUAUAGG [Ex Tryptophan B 3] | 0.0926 | 0.221 | 0.185 | 0.154 | 0.382
18 | CCUAUGCAGUCGGCCGCCACUGAACAUGAGGAUCACCCAUGUAAUUAUAAAUAUGGUCCUAAAAUCAGGACCGGGACUGUAUAGG [Ex Tryptophan B 7] | 0.122 | 0.144 | 0.296 | 0.0642 | 0.237

Row | Sequence | apparent KD of MS2 coat protein (input ligand: arginine 13.2 mM) [µM] | apparent KD of MS2 coat protein [1] [µM] | apparent KD of MS2 coat protein [2] [µM] | apparent KD of MS2 coat protein (input ligand: none) [µM] | apparent KD of MS2 coat protein [3] [µM]
19 | CCUAUGCAGUCGGCCGCCACUGAGUCCUCAAUAAUAAAUUAAUAAACAUGAGGAUCACCCAUGUACAGGACCGGGACUGUAUAGG [Ex Tryptophan B 12] | 0.165 | 0.324 | 0.441 |  | 
20 | CCUAUGCAGUCGGCCGCCACUGAUAACGUUAUCGUUACCUCAGAAACAUGAGGAUCACCCAUGUACAGGACCGGGACUGUAUAGG [Ex Tryptophan B 19] | 0.0144 | 0.0146 | 0.0132 |  | 
21 | CCUCACAUGAGGAUCACCCAUGUCUUUACACGAGGACCGGUACGGCCGCCACUCGUUCACAAAACAACCAGAAGUGAUGCCUACA [theeternabot_sameState_MS2_Trp_A_14] | 0.0802 | 0.183 | 0.214 |  | 
22 | CCUCAUGUGUAUCACCACAUGAGUGGUGAUACCAGCAUCGAAAGAUGCCCUUGGCAGCACCAACAUGAGGAUCACCCAUGUAAUA [(M)'-(T)'-(M)''-(T1)-(T2)-(M1)-(M2)_Design2] | 0.0603 | 0.284 |  |  | 0.287
23 | CCUCGACAUGAGGAUCACCCAUGUAGAGAUACCAGCCUGUGAGAUGGCCCUUGGCAGCUCAUAUAGGGUACAGGAGUCGUUUUGA [Qugetila] | 0.0235 | 0.0632 |  |  | 0.0239
24 | CCUCGACAUGAGGAUCACCCAUGUAGAGAUACCAGCCUGUGAGAUGGCCCUUGGCAGCUCAUAUAGGGUACGGGAGUCGUUUCGA [Eslaqu] | 0.0194 | 0.0484 | 0.263 | 0.0222 | 0.0221
25 | CGAAUAUAGACGGCCGCCACUCUACAAACAUGAGGAUCACCCAUGUUCACAUAGUGGAAACACAUGAGGACCGGGUCAUAGGCUU [#19 Same State - Tryptophan B] | 0.0232 | 0.0269 | 0.0239 |  | 
26 | CGAGUGAGUUCAAUCGAAUAACGGUUUUCGCGAGGACCGGUACGGCCGCCACUCGUGUGAUAUCACACAUGAGGAUCACCCAUGU [3'end-1] | 0.0347 | 0.049 | 0.0634 |  | 
27 | CGAUACAAAUAAAGCGUUCGUCCGCCAGAUACCAGAUUCAUUUCCAUCCCUUGGCAGCUGUCGACAUGAGGAUCACCCAUGUUUG [theeternabot_exclusion_MS2_Theo_A_41] | 0.0172 | 0.0217 |  |  | 0.0199
28 | CGAUAUAUACGAAGGAGCGACAUGAGGAUCACCCAUGUCUACCACGUCGAAAGACGCUCAUGUCAGGUAGGUCGCGUAUAUAUCG [Astros-Eli-mod9] | 0.0567 | 0.123 | 0.239 | 0.137 | 0.117
29 | CGCAAGCAACAUGAGGAUCACCCAUGUGAAGGAGCGCCGAAUAAGGCAGGUAGGUCGCACAUGAAUAAAUCAUGUAAAAGCUUGC [MAT - Exclusion Arginine A - Mod of Eli - D22] | 0.0337 | 0.0529 | 0.16 | 0.0627 | 0.0583
30 | CGCCGAGAGGGAAGGAGCGCGAUAACAUAACAUGAGGAUCACCCAUGUAAGAAAUUAAUCAUGCAGGUAGGUCGCCCAAGCGGCG [Same State Arginine B GF 3] | 0.015 | 0.0238 | 0.0194 | 0.0151 | 0.0149
31 | CGCGGACCACCUGAUACCAGCGCAGUCAUGCAUGAACCCAACAUGAGGAUCACCCAUGUACGCCCUUGGCAGCAGGGAAAAGUCG [theeternabot_exclusion_MS2_Theo_B_8] | 0.0764 | 0.223 |  |  | 0.163
32 | CGCUACAUGAGGAUCACCCAUGUUACUCCGCGAGGACCGGUACGGCCGCCACUCGGCAGUUUGCGCCGCCGGAGGCACUCUUCAG [theeternabot_sameState_MS2_Trp_A_32] | 0.0209 | 0.0436 | 0.0337 |  | 
33 | CGGACAUGAGGAUCACCCAUGUACACUGAAGGAGCGUCGAGAACGACAGGUAGGUCGCAGGCUAAGGAAGGUGAUGCUCAAGAAG [Exclusion Arginine A GF5] | 0.0378 | 0.0473 | 0.0411 | 0.0365 | 0.0236
34 | CGGGCCGCUGCGGAUACCAGUUGAGCAUAGGUAGUGUAUGACAUGAGGAUCACCCAUGUUAACCCUUGGCAGCCGAGAGGGCAGA [theeternabot_exclusion_MS2_Theo_B_13] | 0.0104 | 0.0202 | 0.0154 | 0.0116 | 0.0102
35 | CUAAGAGCGGCGGCCGCCACUGGUAACCGAGAGGAGGAGCUUCUGAACAUGAGGAUCACCCAUGUCAGGACCGGGUCGUCUUAGA [Same State - Tryptophan B] | 0.0155 | 0.0185 | 0.0149 | 0.0138 | 0.0166

Reference: the supplement of paper PMC9170038
